B1: glmS ribozyme (parent)
chain: AUAAAAGCGCCAGAACUACAGAAAUGUAGUUGACGAGGAGGAGGUUUAUCGAAUUUUCGGCGGAUGCCUCCAAA

What all share (conditions): with glucosamine-6-phosphate
Variants of B1 are the subject of data set [1]. Put plainly: kcat; higher = faster cleavage; RNA array. An outline of the steps:
(§1)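 E. coli RNA polymerase transcribed barcoded ribozyme variants in situ on sequenced MiSeq chips, which were tracked via a hybridised Cy3 probe at 37 °C. Tiles were imaged over ~14 h after glucosamine-6-phosphate (40 μM to 10 mM) in HEPES/KCl/Mg(OAc)2 buffer was flowed in. Normalised per-tile medians were fit to one- or two-exponential decays for kobs, and kcat and KM came from weighted Michaelis–Menten fits.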

The variants in data set [2] derive from B1. Nature of the data set: KM; higher = weaker cofactor use; RNA array. In a few lines: as §1
The variants in data set [3] derive from B1. Nature of the data set: self-cleavage kobs at 2500 uM GlcN6P; higher = faster cleavage; RNA array. In a few lines:
as §1

Data set [4] covers variants of B1. Nature of the data set: self-cleavage kobs at 10000 uM GlcN6P; higher = faster cleavage; RNA array. In a few lines: as §1
In data set [5] the parent is B1. Put plainly: self-cleavage kobs at 640 uM GlcN6P; higher = faster cleavage; RNA array. An outline of the steps:
as §1

In data set [6] the parent is B1. Put plainly: self-cleavage kobs at 40 uM GlcN6P; higher = faster cleavage; RNA array. In a few lines:
as §1

The variants in data set [7] derive from B1. Nature of the data set: self-cleavage kobs at 160 uM GlcN6P; higher = faster cleavage; RNA array. In a few lines:
as §1

± gives the standard error. For some assays here: This sample holds only a part of the variants without activity. Some results are limits rather than exact numbers.

In the case of G13U A14C, in data set [1], the kcat was 0.00021 ± 2.8e-05 s⁻¹. The KM in data set [2] stood at 8960 ± 1900 µM. The “self-cleavage kobs at 2500 uM GlcN6P” value in data set [3] was found to be 4.71e-05 ± 9.7e-06 s⁻¹. Besides, in data set [4], the “self-cleavage kobs at 10000 uM GlcN6P” value was determined as 0.00011 ± 2e-05 s⁻¹.
Take U30A U46A: the kcat in data set [1] is 0.00042 ± 5.2e-05 s⁻¹. For the same variant, in data set [3], the “self-cleavage kobs at 2500 uM GlcN6P” value is 0.000372 ± 0.0001 s⁻¹. Also, the “self-cleavage kobs at 10000 uM GlcN6P” value in data set [4] came to 0.000363 ± 5.1e-05 s⁻¹.
For A48G C70A, in that order: 4.63e-05 ± 4.7e-06 s⁻¹, 4.55e-05 ± 1.2e-05 s⁻¹ and 4.22e-05 ± 6.5e-06 s⁻¹.
With G38A C71U, the kcat in data set [1] is less than 1e-05 s⁻¹.
As to U30G A42U C67G, the kcat in data set [1] amounted to 0.00016 ± 2.9e-05 s⁻¹. The “self-cleavage kobs at 640 uM GlcN6P” value in data set [5] is 8.82e-05 ± 2.3e-05 s⁻¹. In addition, the “self-cleavage kobs at 2500 uM GlcN6P” value in data set [3] stood at 0.000107 ± 2.9e-05 s⁻¹. In addition, the “self-cleavage kobs at 10000 uM GlcN6P” value in data set [4] came to 0.000167 ± 4.5e-05 s⁻¹.
As to G40U U47G, the kcat in data set [1] came out at 0.000765 ± 0.00012 s⁻¹. Further, the KM in data set [2] was determined as 908 ± 250 µM. Further, the “self-cleavage kobs at 40 uM GlcN6P” value in data set [6] amounted to 4.04e-05 ± 1e-05 s⁻¹. For the same variant, the “self-cleavage kobs at 160 uM GlcN6P” value in data set [7] amounted to 0.000115 ± 2.6e-05 s⁻¹. Besides, the “self-cleavage kobs at 640 uM GlcN6P” value in data set [5] amounted to 0.000262 ± 5.2e-05 s⁻¹. Also, the “self-cleavage kobs at 2500 uM GlcN6P” value in data set [3] was 0.000699 ± 0.00013 s⁻¹. The “self-cleavage kobs at 10000 uM GlcN6P” value in data set [4] was determined as 0.000681 ± 0.00011 s⁻¹.
In the case of G44U U45A, the kcat in data set [1] turned out to be 0.000658 ± 0.00016 s⁻¹. Besides, the Michaelis-Menten constant (KM) in data set [2] was 1820 ± 740 µM. Besides, the “self-cleavage kobs at 640 uM GlcN6P” value in data set [5] was found to be 0.000175 ± 3.5e-05 s⁻¹. The “self-cleavage kobs at 2500 uM GlcN6P” value in data set [3] was 0.000478 ± 9.7e-05 s⁻¹. For the same variant, the “self-cleavage kobs at 10000 uM GlcN6P” value in data set [4] turned out to be 0.00046 ± 0.00014 s⁻¹.
U46C C70G: in data set [1], the kcat stood at 0.000447 ± 0.00013 s⁻¹. The “self-cleavage kobs at 40 uM GlcN6P” value in data set [6] worked out at 6.28e-05 ± 2.3e-05 s⁻¹. Also, the “self-cleavage kobs at 160 uM GlcN6P” value in data set [7] turned out to be 3.81e-05 ± 1.5e-05 s⁻¹. Moreover, the “self-cleavage kobs at 640 uM GlcN6P” value in data set [5] was 0.000178 ± 2.9e-05 s⁻¹. In addition, the “self-cleavage kobs at 2500 uM GlcN6P” value in data set [3] stood at 0.000453 ± 6.5e-05 s⁻¹. Besides, the “self-cleavage kobs at 10000 uM GlcN6P” value in data set [4] came to 0.000346 ± 5.5e-05 s⁻¹.
Turning to U31G A39U, the kcat in data set [1] stood at 0.0136 ± 0.0028 s⁻¹. The KM in data set [2] was 3520 ± 930 µM. In data set [6], the “self-cleavage kobs at 40 uM GlcN6P” value is 0.000179 ± 1.6e-05 s⁻¹. The “self-cleavage kobs at 160 uM GlcN6P” value in data set [7] was found to be 0.000492 ± 7.3e-05 s⁻¹. Also, in data set [5], the “self-cleavage kobs at 640 uM GlcN6P” value was 0.00183 ± 0.00041 s⁻¹. Also, in data set [3], the “self-cleavage kobs at 2500 uM GlcN6P” value stood at 0.00485 ± 0.00084 s⁻¹. The “self-cleavage kobs at 10000 uM GlcN6P” value in data set [4] came out at 0.0106 ± 0.0011 s⁻¹.
Consider A14C G44C C67G, for which the kcat in data set [1] was 0.00155 ± 0.00052 s⁻¹. The “self-cleavage kobs at 40 uM GlcN6P” value in data set [6] turned out to be 3.15e-05 ± 1.2e-05 s⁻¹. Moreover, in data set [5], the “self-cleavage kobs at 640 uM GlcN6P” value was found to be 0.000389 ± 0.0001 s⁻¹. Moreover, the “self-cleavage kobs at 2500 uM GlcN6P” value in data set [3] is 0.000548 ± 0.00015 s⁻¹. Moreover, the “self-cleavage kobs at 10000 uM GlcN6P” value in data set [4] turned out to be 0.00139 ± 0.00022 s⁻¹.
As to G32U U56C, the kcat in data set [1] was 0.000177 ± 3.9e-05 s⁻¹. In addition, the KM in data set [2] is 2990 ± 1300 µM. Also, the “self-cleavage kobs at 40 uM GlcN6P” value in data set [6] was less than 1e-05 s⁻¹. Also, the “self-cleavage kobs at 640 uM GlcN6P” value in data set [5] is 2.54e-05 ± 8.9e-06 s⁻¹. The “self-cleavage kobs at 2500 uM GlcN6P” value in data set [3] stood at 0.000105 ± 2.1e-05 s⁻¹. In data set [4], the “self-cleavage kobs at 10000 uM GlcN6P” value was 0.000127 ± 2.4e-05 s⁻¹.
Consider G40U A52U, for which the turnover number (kcat) in data set [1] was determined as 0.000102 ± 6.2e-06 s⁻¹. The KM in data set [2] is 2510 ± 550 µM. Further, the “self-cleavage kobs at 2500 uM GlcN6P” value in data set [3] turned out to be 4.82e-05 ± 9.8e-06 s⁻¹. In addition, in data set [4], the “self-cleavage kobs at 10000 uM GlcN6P” value turned out to be 8.17e-05 ± 6.8e-06 s⁻¹.
As to A6U U54A C67A, the kcat in data set [1] worked out at 2.15e-05 ± 2.2e-06 s⁻¹. Further, the “self-cleavage kobs at 160 uM GlcN6P” value in data set [7] was less than 1e-05 s⁻¹.
Take G41U A52G: the kcat in data set [1] amounted to 0.000128 ± 2e-05 s⁻¹. The KM in data set [2] was determined as 1140 ± 560 µM. For the same variant, the “self-cleavage kobs at 640 uM GlcN6P” value in data set [5] amounted to 3.83e-05 ± 8.7e-06 s⁻¹. Besides, in data set [3], the “self-cleavage kobs at 2500 uM GlcN6P” value came to 0.000113 ± 1.3e-05 s⁻¹. Moreover, the “self-cleavage kobs at 10000 uM GlcN6P” value in data set [4] was determined as 0.000107 ± 1.1e-05 s⁻¹.
On to A6C C10U C67G U69A, for which the kcat in data set [1] came out at 2.09e-05 ± 8.6e-06 s⁻¹.
The same measure, in the same setting: with A12U G44U U47G the figure was 1.54e-05 ± 2.4e-06 s⁻¹.
Take U45G U55C: the kcat in data set [1] turned out to be 0.00551 ± 0.00089 s⁻¹. Also, the KM in data set [2] worked out at 2350 ± 590 µM. Moreover, in data set [6], the “self-cleavage kobs at 40 uM GlcN6P” value came out at 0.000129 ± 2.6e-05 s⁻¹. For the same variant, in data set [7], the “self-cleavage kobs at 160 uM GlcN6P” value was found to be 0.000297 ± 5.2e-05 s⁻¹. Besides, the “self-cleavage kobs at 640 uM GlcN6P” value in data set [5] worked out at 0.00131 ± 0.0002 s⁻¹. In data set [3], the “self-cleavage kobs at 2500 uM GlcN6P” value was found to be 0.00273 ± 0.00035 s⁻¹. In addition, the “self-cleavage kobs at 10000 uM GlcN6P” value in data set [4] is 0.00455 ± 0.00058 s⁻¹.

Values taken from the supplement of paper PMC7125110.
